# Where no end group is shown, it is not given here.
# T1: rat growth hormone binding protein (rGHBP) (rat, UniProt P16310 19-265)
# T1 construct: extracellular domain; also called rat GHBP; soluble rGHBP
# T1 sequence (looked up): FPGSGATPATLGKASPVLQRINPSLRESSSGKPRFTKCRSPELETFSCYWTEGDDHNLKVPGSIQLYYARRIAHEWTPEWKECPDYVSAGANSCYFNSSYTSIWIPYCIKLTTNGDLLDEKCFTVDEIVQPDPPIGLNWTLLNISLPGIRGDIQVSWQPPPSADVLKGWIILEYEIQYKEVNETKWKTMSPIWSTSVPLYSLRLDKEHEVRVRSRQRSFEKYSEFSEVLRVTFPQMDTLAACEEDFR
# Key:
# [1] = molecular target: rat growth hormone binding protein (rGHBP) (rat) (UniProt P16310); assay: TRFD competition on rGHBP-coated wells, vs. bP#418 (SEQ ID NO: 12)
# [2] = molecular target: rat growth hormone binding protein (rGHBP) (rat) (UniProt P16310); assay: phage ELISA competition on rGHBP (100 ng/well); blocked: H5 phage
# [3] = molecular target: rat growth hormone binding protein (rGHBP) (rat) (UniProt P16310); assay: TRFD competition on rGHBP-coated wells, vs. bP#447 (SEQ ID NO: 11)
# [4] = molecular target: rat growth hormone binding protein (rGHBP) (rat) (UniProt P16310); assay: TRFD competition on rGHBP-coated wells, vs. bGH
# [5] = molecular target: rat growth hormone binding protein (rGHBP) (rat) (UniProt P16310); assay: TRFD, ED50 of specific binding of biotinylated ligand to rGHBP-coated wells
# [6] = molecular target: humanized rat growth hormone binding protein (‘hu’GHBP) (rat (humanized by one substitution)) (UniProt P16310); assay: phage ELISA on ‘hu’GHBP-coated wells, no competitor
# [7] = molecular target: humanized rat growth hormone binding protein (‘hu’GHBP) (rat (humanized by one substitution)) (UniProt P16310); assay: phage ELISA on ‘hu’GHBP-coated wells, +BSA (1 µM)
# [8] = molecular target: humanized rat growth hormone binding protein (‘hu’GHBP) (rat (humanized by one substitution)) (UniProt P16310); assay: phage ELISA on ‘hu’GHBP-coated wells, competitor human GH (+hGH, 1 µM)
# [9] = molecular target: T1, rat growth hormone binding protein …; assay: BIAcore, bPeptide binding to rGHBP, appKD 2
# [10] = molecular target: T1, rat growth hormone binding protein …; assay: phage ELISA competition on rGHBP (100 ng/well); synthetic H5 peptide against H5 phage
# Method: Wells were coated with rGHBP (100 ng/well) and blocked as described. […] Phage was detected with HRP-anti M13 phage antibody and reported at OD₄₀₅ as described.
# [11] = molecular target: T1, rat growth hormone binding protein …; assay: phage ELISA competition on rGHBP (100 ng/well); synthetic peptide against H5 phage
# Method: Wells were coated with rGHBP (100 ng/well) and blocked as described. […] The peptides included two lysine residues added to the C-terminus of the sequence shown. Phage binding was detected with HRP-anti M13 phage antibody. Number and sequence of competing peptides are detailed on the right of figure. Control binding=binding in absence of peptide.
# [12] = molecular target: T1, rat growth hormone binding protein …; assay: BIAcore, bPeptide binding to rGHBP, appKD 1
# [13] = molecular target: T1, rat growth hormone binding protein …; assay: TRFD
# [14] = molecular target: T1, rat growth hormone binding protein …; assay: TRFD, ED50 of specific binding to rGHBP-coated wells
# Method: (§1) rGHBP (50-200 μg/ml in 50 mM NaHCO₃) was coated onto low-fluorescence MaxiSorp (Nunc) plates (100 μl/well) overnight at 4° C. The plates were blocked with PBS containing 2% non-fat milk and 0.05% BSA for 2 hr at room temperature, followed by three PBS washes. […] Ten microliters of the 10× concentrated material was added to the plates and incubated at room temperature for 1 hr to overnight.
# (§2) The plates were then washed five times with Tris-buffered saline (pH 7.5) containing 0.1% Tween-20 (TTBS). To each well, 100 μl of europium-labeled streptavidin in DELFIA assay buffer (100 mM Tris-HCl, pH 7.8; 150 mM NaCl; 0.5% BSA; 0.05% bovine Ig; 0.05% NaN3; 0.01% Tween-20) was added and incubated for 1.5 hr at room temperature. The plates were then washed five times with TTBS and tapped dry. Subsequently, 100 μl of DELFIA enhancement solution (100 mM acetone-potassium hydrogen phthalate, pH 3.2; 15 mM 2-naphtyltrifluoroacetate; 50 mM tri(n-octyl)-phosphine oxide; 0.1% Triton X-100) was added to each well, and the plates were shaken for 10 min at room temperature.
# [15] = molecular target: T1, rat growth hormone binding protein …; assay: TRFD, ED50 of specific binding of biotinylated ligand to rGHBP-coated wells
# Method: Wells were coated with rGHBP (100 ng/well) overnight as described. ED₅₀ and IC₅₀ were calculated from analysis of specific bLigand binding to rGHBP. Competitors were added 1 hr prior to addition of bLigand as described.
# as §1, §2
# [16] = molecular target: T1, rat growth hormone binding protein …; assay: phage ELISA, rGHBP 100 ng/well
# Method: Alanine replacement for single or multiple amino acids is represented by “a” and for cysteine by “X”. FIG. 4A illustrates the binding of wild-type (WT) and mutant phage on wells coated with milk (2%), FcMAb (100 ng/well), rGHBP (100 ng/well), or MAb specific for the E-tag epitope (100 ng/well). FIG. 4B illustrates the ratio of mutant phage binding to rGHBP versus anti-E-tag MAb coated wells.
# For this analysis, phage were input at 10¹⁰/well. Wild type (WT) and mutant phage were tested on wells coated with milk (2%), FcMAb (100 ng/well), rGHBP (100 ng/well), or MAb specific for the E-tag epitope (100 ng/well) (FIG. 4A). Detection with HRP-anti M13 phage antibody was done as described. In FIG. 4, alanine replacement for single or multiple amino acid is represented by “a” and for cysteine by “X”.
molecule,measurement,setting,value
"growth hormone (GH), species not stated (ligand)",IC50,[1],2 nM
same,IC50 (read off the curve),[2],5 nM
same,IC50,[3],0.4 nM
same,IC50,[4],5 nM
biotinylated growth hormone (bGH) (ligand),EC50,[5],20 nM
"DYKDLCQRLGVGWPGWLAGWCA (cysteine pairing not given here; also: biotinylated in bP form, position not given here) [peptide #445]",ELISA signal (unit not given),[6],0.14
same,ELISA signal (unit not given),[7],0.11
same,ELISA signal (unit not given),[8],0.12
"DYKDLCQSLGVTYPGWLAGWCA (cysteine pairing not given here; also: biotinylated in some formats, position not given here, also called H5 phage) [GHBP-H5 peptide (H5WT)]",Kd,[9],3500 nM
same,IC50 (read off the curve),[10],~1000 nM
same,IC50 (read off the curve),[11],~1000 nM
same,Kd,[12],1300 nM
"DYKDLCQRLGVGWPGWLSGWCA (cysteine pairing not given here; also: biotinylated in bP form, position not given here, H5 mutant from the secondary library, synthetic) [peptide #447]",Kd,[9],2900 nM
same,fold better binding than H5WT or bP#445,[13],10 fold
same,EC50,[14],700 nM
same,IC50 (read off the curve),[11],~90 nM
same,EC50,[15],600 nM
same,Kd,[12],160 nM
DYKDLAQSLGVTYPGWLAGWCA (H5 phage mutant) [X---C (first C crossed out)],binding result,[16],no binding (tested: 10^10 phage/well)
"DYKDLCQRLGVTWPGWLAGWCA (cysteine pairing not given here; also: biotinylated, position not given here, H5 mutant, synthetic) [peptide #443]",Kd,[9],> 10000 nM
same,IC50 (read off the curve),[11],~400 nM
same,Kd,[12],600 nM
DYKDLAQSLGVTYPGWLAGWAA (H5 phage mutant) [X---X (both C crossed out)],binding result,[16],no binding (tested: 10^10 phage/well)
"DYKDLCQSWQVTWPGWLAGWCA (cysteine pairing not given here; also: biotinylated in bP form, position not given here, H5 mutant from the secondary library (Y9 to W, L5 to W, G6 to E), synthetic) [peptide #418]",Kd,[9],670 nM
same,fold better binding than H5WT or bP#445,[13],10 fold
same,IC50 (read off the curve),[11],~100 nM
same,EC50,[15],800 nM
same,Kd,[12],150 nM
DYKDALLHRSRCVRWGKWVCCLPPVGVGGAQANQGMSVQRFRHC [clone HH peptide],ELISA signal (unit not given),[6],0.37
same,ELISA signal (unit not given),[7],0.37
same,ELISA signal (unit not given),[8],0.35

# Source: patent publication US20060252697A1 (ANTYRA, published 2006)
